Assay results reported in article PMC6561738 (Science Advances, 2019).

Columns and labels:
atomic force microscopy = target: the molecule itself; assay: atomic force microscopy
SecA (wild type) = SecA (wild type) (E. coli, UniProt P10408 1-901); assay: atomic force microscopy

Row | binding result (SecA (wild type)) | Binder | binding result (atomic force microscopy)
1 | – | SecAC4Q801C, cross-linked dimeric species (SecA C98S, C885S, C887S, C896S, Q801C) (enzyme, cross-linked dimer (so in the source); the chemistry of the cross-link is not told) MLIKLLTKVFGSRNDRTLRRMRKVVNIINAMEPEMEKLSDEELKGKTAEFRARLEKGEVLENLIPEAFAVVREASKRVFGMRHFDVQLLGGMVLNERSIAEMRTGEGKTLTATLPAYLNALTGKGVHVVTVNDYLAQRDAENNRPLFEFLGLTVGINLPGMPAPAKREAYAADITYGTNNEYGFDYLRDNMAFSPEERVQRKLHYALVDEVDSILIDEARTPLIISGPAEDSSEMYKRVNKIIPHLIRQEKEDSETFQGEGHFSVDEKSRQVNLTERGLVLIEELLVKEGIMDEGESLYSPANIMLMHHVTAALRAHALFTRDVDYIVKDGEVIIVDEHTGRTMQGRRWSDGLHQAVEAKEGVQIQNENQTLASITFQNYFRLYEKLAGMTGTADTEAFEFSSIYKLDTVVVPTNRPMIRKDLPDLVYMTEAEKIQAIIEDIKERTAKGQPVLVGTISIEKSELVSNELTKAGIKHNVLNAKFHANEAAIVAQAGYPAAVTIATNMAGRGTDIVLGGSWQAEVAALENPTAEQIEKIKADWQVRHDAVLEAGGLHIIGTERHESRRIDNQLRGRSGRQGDAGSSRFYLSMEDALMRIFASDRVSGMMRKLGMKPGEAIEHPWVTKAIANAQRKVESRNFDIRKQLLEYDDVANDQRRAIYSQRNELLDVSDVSETINSIREDVFKATIDAYIPPQSLEEMWDIPGLQERLKNDFDLDLPIAEWLDKEPELHEETLRERILAQSIEVYQRKEEVVGAEMMRHFEKGVMLQTLDSLWKEHLAAMDYLRQGIHLRGYAQKDPKCEYKRESFSMFAAMLESLKYEVISTLSKVQVRMPEEVEELEQQRRMEAERLAQMQQLSHQDDDSAAAAALAAQTGERKVGRNDPSPSGSGKKYKQSHGRLQ | binds
2 | binds | SecYEG translocon (SecY C329S, C385S; His-tagged SecE; SecG) (complex) chain 1: MAKQPGLDFQSAKGGLGELKRRLLFVIGALIVFRIGSFIPIPGIDAAVLAKLLEQQRGTIIEMFNMFSGGALSRASIFALGIMPYISASIIIQLLTVVHPTLAEIKKEGESGRRKISQYTRYGTLVLAIFQSIGIATGLPNMPGMQGLVINPGFAFYFTAVVSLVTGTMFLMWLGEQITERGIGNGISIIIFAGIVAGLPPAIAHTIEQARQGDLHFLVLLLVAVLVFAVTFFVVFVERGQRRIVVNYAKRQQGRRVYAAQSTHLPLKVNMAGVIPAIFASSIILFPATIASWFGGGTGWNWLTTISLYLQPGQPLYVLLYASAIIFFSFFYTALVFNPRETADNLKKSGAFVPGIRPGEQTAKYIDKVMTRLTLVGALYITFISLIPEFMRDAMKVPFYFGGTSLLIVVVVIMDFMAQVQTLMMSSQYESALKKANLKGYGR chain 2: MSANTEAQGSGRGLEAMKWVVVVALLLVAIVGNYLYRDIMLPLRALAVVILIAAAGGVALLTTKGKATVAFAREARTEVRKVIWPTRQETLHTTLIVAAVTAVMSLILWGLDGILVRLVSFITGLRF chain 3: MYEALLVVFLIVAIGLVGLIMLQQGKGADMGASFGAGASATLFGSSGSGNFMTRMTALLATLFFIISLVLGNINSNKTNKGSEWENLSAPAKTEQTQPAAPAKPTSDIPN | –
